The text below walks through data of patent US12060408B2, “Screening assays, modulators and modulation of activation of Receptor for Advanced Glycation End-products (RAGE)” (Monash University, priority 2017, dated 2024).

“Also recorded” adds a separate entry of the source. Ends that are not written are not given here.

In experiment [1] the target is T1, RAGE (Mus musculus, UniProt Q62151).
T1 construct: in murine SVEC that are endogenously replete in RAGE expression; host or cells: Svec4-10 mouse endothelial cells
T1 sequence (Q62151 23-402): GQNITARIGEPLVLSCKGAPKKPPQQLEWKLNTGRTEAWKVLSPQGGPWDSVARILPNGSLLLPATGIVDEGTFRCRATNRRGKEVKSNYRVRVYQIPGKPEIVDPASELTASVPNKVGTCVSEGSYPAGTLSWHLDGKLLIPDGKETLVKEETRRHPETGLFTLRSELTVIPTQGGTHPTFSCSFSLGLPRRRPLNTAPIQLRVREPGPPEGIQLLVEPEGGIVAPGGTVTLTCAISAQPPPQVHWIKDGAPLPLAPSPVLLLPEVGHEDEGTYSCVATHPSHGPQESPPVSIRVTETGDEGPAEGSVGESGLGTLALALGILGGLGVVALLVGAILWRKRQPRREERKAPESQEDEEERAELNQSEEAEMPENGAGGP
Nature of the experiment: Ang II-induced ICAM-1 gene expression in murine SVEC. To be noted: murine SVEC endogenously replete in RAGE; transfected constructs; 1 μM Ang II; FIG. 12A, 12B, 12D. The experiment is classed as cell-based. Here is the method:
To explore the potential for RAGE constructs to inhibit transactivation of endogenous RAGE, additional experiments were conducted in immortalized mouse endothelial cells (Svec4-10, ATCC) cultured in 10% FBS/DMEM with 25 mM glucose were used. SVEC were transfected with truncated RAGE constructs using Lipofectamine 2000 (Invitrogen) as per manufacturer's instructions, or treated with RAGE oligopeptides (280 μM). Cells were allowed to recover in media containing 10% FBS for 16 hours prior to treatment with 1 μM Ang II.

In experiment [2] the test system is RAGE ligand-independent activation of RAGE by activated AT1R. In words: Ang II-induced NFκB activation (p65 gene expression, SEAP reporter) in AT1R-CHO cells with RAGE constructs. The following applies: construct expressed in AT1R-CHO cells, no wild-type RAGE. Type of experiment: cell-based, human. Here is the method: (§1) Generation of Transgenic Chinese Hamster Ovary Cells
(§2) 100 ng of AT1R-Rluc8 construct was transfected into CHO cells using Lipofectamine 2000 (Thermo). Stable transfectants were selected using G418. AT1R—CHO were then transiently transfected with RAGE constructs using Lipofectamine 2000 (Invitrogen) and incubated for 16 h. The Homo sapiens AGER transcript variant 1 coding sequence (NM_001136) was synthesised and cloned between the NheI and XbaI sites of pCIneo (Promega) to generate the vector pCIneo-RAGE. This plasmid was then used to generate a library of mutant AGER clones (NP_001127). Primers 1-RAGE-SP-5′ and mCherry-XhoI-NotI-3′ were used to amplify the coding sequence of mCherry from the vector pmCherry-C1. The resultant PCR product was then used as template for a second PCR using primers 2-RAGE-SP-5′ and mCherry-XhoI-NotI-3′. The PCR product generated was digested with NheI and NotI and inserted between the NheI and NotI sites of pCIneo to generate pCIneo-SP-mCherry. The sequence of the insert was confirmed by DNA sequencing (Micromon, Monash University). […]
(§3) Cellular Expression of Pro-Inflammatory Markers and Mediators by Quantitative Real-Time PCR
(§4) After 2 hours of exposure to Ang II (1 μM) or the RAGE ligand, S100A8/A9 (5 ng/ml) cells were placed in Trizol, mRNA extracted and cDNA synthesized. Changes in the gene expression of the NFκB subunit, p65 (RelA) or NFκB-activated target genes (e.g ICAM-1, VCAM-1) were estimated by quantitative real-time RT-PCR, performed using the TaqMan system based on real-time detection of accumulated fluorescence (ABI Prism 7700, Perkin-Elmer Inc, PE Biosystems, Foster City, CA, USA). Gene expression was normalized to 18S mRNA and reported as fold change compared to the level of expression in untreated control mice/cells, which were given an arbitrary value of 1.
Oligopeptides (Cherry-TAT (control), mCherry-TAT-RAGE362-404 and mCherry-S391A-TAT-RAGE362-404 were generated by transformation of the Escherichia coli strain ClearColi BL21 (DE3; Lucigen). A single transformed colony was inoculated into 50 ml 2YT medium containing 100 μg/ml ampicillin and the culture was grown overnight at 37° C. with shaking at 250 rev/min. 10 ml overnight culture was used to inoculate 1 litre 2YT medium containing 100 μg/ml ampicillin and the culture was grown at 37° C. with shaking at 250 rev/min. When the cultures reached an OD600 of 0.8, the temperature was shifted to 15° C. for 30 min after which protein expression was induced by the addition of 1 mM isopropyl β-D-1-thiogalacto-pyranoside (IPTG). Following the addition of IPTG the cultures were grown for ˜16 h at 15° C. with shaking at 250 rev/min. Cells were harvested by centrifugation (3500 g, 4° C., 20 min) and resuspended in ice-cold lysis buffer (50 mM Tris pH 7.4, 300 mM NaCl, 10 mM imidazole and 5 mM beta-mercaptoethanol). The resuspended cells were sonicated and insoluble material was pelleted by centrifugation (13 000 g, 4° C., 30 min). The supernatant was filtered (0.2 μm) and applied onto a gravity-flow column with a 1 ml Ni-NTA Agarose resin bed volume (Qiagen) pre-equilibrated with lysis buffer. After the supernatant was passed over the resin, the column was washed with 100 ml of wash buffer (20 mM imidazole, 50 mM Tris pH 7.4, 150 mM NaCl, 5 mM beta-mercaptoethanol). His-tagged TAT-mCherry and TAT-mCherry-RAGE peptides were eluted from the resin using elution buffer (250 mM imidazole, 50 mM Tris pH 7.4, 150 mM NaCl, 5 mM beta-mercaptoethanol). […]

Experiment [3] concerns primary murine aortic endothelial cells (PMAEC). In words: Expression of pro-inflammatory markers by real-time RT-PCR in primary murine aortic endothelial cells. Type of experiment: cell-based, mouse. On the procedure: Primary aortic endothelial cells (PMAEC) were isolated from the aortae of (wild-type) C57bl6 mice and AGER KO mice and cultured in Dulbecco's modified Eagle's medium (DMEM)/F12 endothelial cell growth supplement (ECGS) supplemented media. Chinese Hamster Ovary (CHO) cells were cultured using F12 media (10% FCS with 2 mM glutamine). Human microvascular endothelial cells (HMEC) were cultured in MCDB 131 medium (10% FCS with 10 mM glutamine, EGF and hydrocortisone).
as §3, §4
Selective Silencing of Gene Expression Using siRNA
PMAEC from C57b/6 mice were also transfected with siRNA to RAGE (2 nM) Ambion, ID:s62119), p65 (RelA) (10 nM; Ambion, ID:s72857), MyD88 (10 nM; Ambion. ID:s201719), PKCζ (10 nM; Ambion, ID:s71716), IQGAP-1, Ambion, ID:s78119), Diaph1 (10 nM; sense5′-[…], antisense 3′-[…]; Invitrogen) or scrambled control #1 (2 nM or 10 nM; Ambion) using Lipofectamine RNAiMAX (Invitrogen) as per manufacturer's instructions. Cells were allowed to recover in media containing 10% FBS for 16 hours prior to treatment with 1 μM Ang II or 5 ng/ml of the RAGE ligand, S100A8/A9, as a signalling control.
(In general: Real-time PCR tracks product formation cycle by cycle.)

The test system of experiment [4] is RAGE ligand-dependent activation of RAGE. Nature of the experiment: S100A8/A9-induced NFκB activation (p65 gene expression) in CHO cells expressing RAGE constructs. Type of experiment: cell-based, human. The following applies: AT1R-CHO cells also expressing full length RAGE. Here is the method: as §1, §2, §3, §4
To measure the induction of NFκB activity by 1 μM Ang II, or 5 ng/ml of the RAGE-ligand S100A8/A9 as a signalling control, AT1R—CHO cells were transfected with 0.4 μg of plasmids encoding NFκB-SEAP or β-galactosidase (β-Gal) using Lipofectamine 2000 (Invitrogen) as per manufacturer's instructions. After 24 hours, cells transfected with each plasmid combination were then treated with Ang II (1 μM) or left untreated and incubated for 4 hours before cell supernatants and cell lysates were collected. Cell supernatants were analysed using a chemiluminescent SEAP reporter gene assay (Roche Applied Science) to detect SEAP production after treatment. To control for transfection efficiency, cell lysates were assayed for β-Gal using a commercially available kit (Promega).

For “E380A-RAGE370-390: alanine mutant of RAGE370-390 (GEERKAPENQAEEEERAELNQ; cytosolic tail peptide; UniProt Q15109 370-390, looked up, variant E380A)”, in experiment [1], the “induction of ICAM-1 gene expression by Ang II” value (from here on “induction”) is listed as “continue to inhibit”.
Same read-out and setting: the result for “E382A-RAGE370-390: alanine mutant of RAGE370-390 (GEERKAPENQEEAEERAELNQ; cytosolic tail peptide; UniProt Q15109 370-390, looked up, variant E382A)” reads “continue to inhibit”; that for “E384A-RAGE370-390: alanine mutant of RAGE370-390 (GEERKAPENQEEEEARAELNQ; cytosolic tail peptide; UniProt Q15109 370-390, looked up, variant E384A)”, “continue to inhibit”; that for “Q379A-RAGE370-390: glutamine-to-alanine mutant of RAGE370-390 (GEERKAPENAEEEEERAELNQ; cytosolic tail peptide; UniProt Q15109 370-390, looked up, variant Q379A)”, “lost”.
On the same count and under the same terms, the result for “Q379K-RAGE370-390: glutamine-to-lysine mutant of RAGE370-390 (GEERKAPENKEEEEERAELNQ; cytoplasmic region peptide; UniProt Q15109 370-390, looked up, variant Q379K)” reads “retain the greatest inhibitory effect”; that for “Q390A-RAGE370-390: glutamine-to-alanine mutant of RAGE370-390 (GEERKAPENQEEEEERAELNA; cytoplasmic region peptide; UniProt Q15109 370-390, looked up, variant Q390A)”, “lost”.
Same read-out and setting: under “Q390K-RAGE370-390: glutamine-to-lysine mutant of RAGE370-390 (GEERKAPENQEEEEERAELNK; cytosolic tail peptide; UniProt Q15109 370-390, looked up, variant Q390K)” stands “retain the greatest inhibitory effect”; under “RAGE22-404: full length wild-type RAGE construct”, “does not affect”.
With “RAGE379-404: N-truncated RAGE construct, functional substitute of wild type RAGE (QEEEEERAELNQSEEPEAGESSTGGP; UniProt Q15109 379-404, looked up, fragment)”, the “ability of the RAGE construct to be activated and mediate pro-inflammatory signalling in response to Ang II” value in experiment [2] is given as “does not result in a loss of function; also recorded: able to be activated”.
With “RAGE385-404: N-truncated RAGE construct eliminating both 380 and 384 (RAELNQSEEPEAGESSTGGP; UniProt Q15109 385-404, looked up, fragment)”, the “ability of the RAGE construct to be activated and mediate pro-inflammatory signalling in response to Ang II” value in experiment [2] is listed as “loss of the modulatory actions”.
For the substance “S391A-RAGE22-404: full length RAGE construct with S391 mutated to alanine”, in experiment [1], the “induction” value is listed as “able to prevent”.
With TNFα, in experiment [3] (PMAEC from C57bl6 mice), the “canonical and non-canonical signalling downstream of NFκB (CXCL2, CXCL12)” value was “selectively induce canonical signalling”.
As to “m-Cherry-RAGE370-395: C-truncated S391X-RAGE mutant fused to mCherry (GEERKAPENQEEEEERAELNQSEEPE; also: mCherry fusion, not in chain; UniProt Q15109 370-395, looked up, fragment)”, in experiment [1], the “induction” value is “prevents”.
Still for that read-out and setting: under “mCherry-S391A-RAGE362-404: N-truncated mCherry-RAGE cytosolic tail construct with S391A (LWQRRQRRGEERKAPENQEEEEERAELNQAEEPEAGESSTGGP; also: mCherry fusion; UniProt Q15109 362-404, looked up, fragment S391A)” stands “able to prevent”.
With “soluble RAGE22-331: decoy receptor with ligand-binding affinity [reference compound]”, in experiment [3] (PMAEC from wild type mice), the “inhibition of Ang II (1 μM)-induced ICAM-1, VCAM-1 and MCP-1” value is recorded as “do not inhibit”; the “inhibition of S100A8/A9-induced ICAM-1” value is recorded as “inhibit”. The “inhibition of S100A8/A9-induced p65 expression” value in experiment [4] was “inhibit”.
